In the supplement of paper PMC11246515:
± gives the standard deviation of the averaged measurements.

Assay: total protein half-life in vivo (active degradation + dilution); higher = more stable protein
[1] = E. coli NCM3722 delta-clpP delta-lon delta-hslV, growth: N-lim chemostat, doubling time 6 h
[2] = E. coli NCM3722 delta-clpP, growth: N-lim chemostat, doubling time 6 h
[3] = E. coli NCM3722 delta-hslV, growth: N-lim chemostat, doubling time 6 h
[4] = E. coli NCM3722 delta-lon, growth: N-lim chemostat, doubling time 6 h
[5] = E. coli NCM3722 delta-smpB, growth: N-lim chemostat, doubling time 6 h
[6] = wild type E. coli NCM3722, growth: C-lim chemostat, doubling time 3 h
[7] = wild type E. coli NCM3722, growth: C-lim chemostat, doubling time 6 h
[8] = wild type E. coli NCM3722, growth: C-lim chemostat, doubling time 12 h
[9] = wild type E. coli NCM3722, growth: N-lim chemostat, doubling time 6 h
[10] = wild type E. coli NCM3722, growth: N-lim chemostat, doubling time 12 h
[11] = wild type E. coli NCM3722, growth: P-lim chemostat, doubling time 6 h
[12] = wild type E. coli NCM3722, growth: P-lim chemostat, doubling time 12 h

| Sequence | total protein half-life in vivo [1] | total protein half-life in vivo [2] | total protein half-life in vivo [3] | total protein half-life in vivo [4] | total protein half-life in vivo [5] | total protein half-life in vivo [6] | total protein half-life in vivo [7] | total protein half-life in vivo [8] | total protein half-life in vivo [9] | total protein half-life in vivo [10] | total protein half-life in vivo [11] | total protein half-life in vivo [12] |
| --- | --- | --- | --- | --- | --- | --- | --- | --- | --- | --- | --- | --- |
| MQTQKPTLELLTCEGAYRDNPTALFHQLCGDRPATLLLESADIDSKDDLKSLLLVDSALRITALGDTVTIQALSGNGEALLALLDNALPAGVESEQSPNCRVLRFPPVSPLLDEDARLCSLSVFDAFRLLQNLLNVPKEEREAMFFGGLFSYDLVAGFEDLPQLSAENNCPDFCFYLAETLMVIDHQKKSTRIQASLFAPNEEEKQRLTARLNELRQQLTEAAPPLPVVSVPHMRCECNQSDEEFGGVVRLLQKAIRAGEIFQVVPSRRFSLPCPSPLAAYYVLKKSNPSPYMFFMQDNDFTLFGASPESSLKYDATSRQIEIYPIAGTRPRGRRADGSLDRDLDSRIELEMRTDHKELSEHLMLVDLARNDLARICTPGSRYVADLTKVDRYSYVMHLVSRVVGELRHDLDALHAYRACMNMGTLSGAPKVRAMQLIAEAEGRRRGSYGGAVGYFTAHGDLDTCIVIRSALVENGIATVQAGAGVVLDSVPQSEADETRNKARAVLRAIATAHHAQETF | 4.74 ± 0.93 h | 3.4 ± 0.18 h | 3.1 ± 0.083 h | 3.6 ± 0.24 h | 3.3 ± 0.17 h | 2.93 ± 0.52 h | 5.7 ± 0.12 h | 9.57 ± 0.22 h | 3.25 ± 0.13 h | 5.08 ± 0.34 h | 6.71 ± 0.33 h | 10.7 ± 1.7 h |
| MKLVGSYTSPFVRKLSILLLEKGITFEFINELPYNADNGVAQFNPLGKVPVLVTEEGECWFDSPIIAEYIELMNVAPAMLPRDPLESLRVRKIEALADGIMDAGLVSVREQARPAAQQSEDELLRQREKINRSLDVLEGYLVDGTLKTDTVNLATIAIACAVGYLNFRRVAPGWCVDRPHLVKLVENLFSRESFARTEPPKA [P0ACA1] | 5.35 ± 1.8 h | 3.78 ± 0.28 h | 4.118 ± 0.04 h | 4.31 ± 0.48 h | 4.22 ± 0.18 h | 3.22 ± 0.13 h | 5.52 ± 0.17 h | 10.7 ± 0.87 h | 4.16 ± 0.18 h | 6.719 ± 0.0095 h | 5.51 ± 0.23 h | 12 ± 1 h |
| MDIISVALKRHSTKAFDASKKLTPEQAEQIKTLLQYSPSSTNSQPWHFIVASTEEGKARVAKSAAGNYVFNERKMLDASHVVVFCAKTAMDDVWLKLVVDQEDADGRFATPEAKAANDKGRKFFADMHRKDLHDDAEWMAKQVYLNVGNFLLGVAALGLDAVPIEGFDAAILDAEFGLKEKGYTSLVVVPVGHHSVEDFNATLPKSRLPQNITLTEV | 2.56 ± 0.26 h | 1.66 ± 0.42 h | 1.405 ± 0.01 h | 2.01 ± 0.14 h | 1.62 ± 0.067 h | 2.72 ± 0.21 h | 3.38 ± 0.86 h | 5.94 ± 0.37 h | 1.58 ± 0.097 h | 2.17 ± 0.057 h | 4.45 ± 0.91 h | 7.04 ± 0.45 h |
| MDKKQVTDLRSELLDSRFGAKSISTIAESKRFPLHEMRDDVAFQIINDELYLDGNARQNLATFCQTWDDENVHKLMDLSINKNWIDKEEYPQSAAIDLRCVNMVADLWHAPAPKNGQAVGTNTIGSSEACMLGGMAMKWRWRKRMEAAGKPTDKPNLVCGPVQICWHKFARYWDVELREIPMRPGQLFMDPKRMIEACDENTIGVVPTFGVTYTGNYEFPQPLHDALDKFQADTGIDIDMHIDAASGGFLAPFVAPDIVWDFRLPRVKSISASGHKFGLAPLGCGWVIWRDEEALPQELVFNVDYLGGQIGTFAINFSRPAGQVIAQYYEFLRLGREGYTKVQNASYQVAAYLADEIAKLGPYEFICTGRPDEGIPAVCFKLKDGEDPGYTLYDLSERLRLRGWQVPAFTLGGEATDIVVMRIMCRRGFEMDFAELLLEDYKASLKYLSDHPKLQGIAQQNSFKHT | 6.14 ± 0.21 h | 6.13 ± 0.6 h | – | 6.24 ± 0.063 h | 5.24 ± 0.19 h | 3.41 h | 6.25 ± 0.14 h | – | 5.7107 ± 0.00073 h | 10.9 ± 0.24 h | 5.97 ± 0.86 h | 13.1 ± 0.33 h |
| MSKVLVLKSSILAGYSQSNQLSDYFVEQWREKHSADEITVRDLAANPIPVLDGELVGALRPSDAPLTPRQQEALALSDELIAELKAHDVIVIAAPMYNFNISTQLKNYFDLVARAGVTFRYTENGPEGLVTGKKAIVITSRGGIHKDGPTDLVTPYLSTFLGFIGITDVKFVFAEGIAYGPEMAAKAQSDAKAAIDSIVSA | 2.22 ± 0.11 h | 1.48 ± 0.24 h | 1.34 ± 0.044 h | 1.5 ± 0.044 h | 1.49 ± 0.15 h | 2.81 ± 0.096 h | 3.39 ± 0.25 h | 5.43 ± 0.92 h | 1.52 ± 0.16 h | 1.85 ± 0.14 h | 4.25 ± 0.14 h | 6.31 ± 0.4 h |
| MASQLTDAFARKFYYLRLSITDVCNFRCTYCLPDGYKPSGVTNKGFLTVDEIRRVTRAFARLGTEKVRLTGGEPSLRRDFTDIIAAVRENDAIRQIAVTTNGYRLERDVASWRDAGLTGINVSVDSLDARQFHAITGQDKFNQVMAGIDAAFEAGFEKVKVNTVLMRDVNHHQLDTFLNWIQHRPIQLRFIELMETGEGSELFRKHHISGQVLRDELLRRGWIHQLRQRSDGPAQVFCHPDYAGEIGLIMPYEKDFCATCNRLRVSSIGKLHLCLFGEGGVNLRDLLEDDTQQQALEARISAALREKKQTHFLHQNNTGITQNLSYIGG | 3.3 ± 0.76 h | 1.83 ± 0.45 h | 0.963 ± 0.26 h | 1.07 ± 0.34 h | 0.9113 ± 0.009 h | 0.618 ± 0.051 h | 1.11 ± 0.23 h | 1.92 ± 0.54 h | 1.03 h | 1.81 ± 0.17 h | > 8 h | 2.39 ± 0.45 h |
| MDSIHGHEVLNMMIESGEQYTHASLEAAIKARFGEQARFHTCSAEGMTAGELVAFLAAKGKFIPSKDGFSTDQSKICRH | – | – | – | – | – | – | 5.53 h | – | – | – | – | – |
| MTGQSSSQAATPIQWWKPALFFLVVIAGLWYVKWEPYYGKAFTAAETHSIGKSILAQADANPWQAALDYAMIYFLAVWKAAVLGVILGSLIQVLIPRDWLLRTLGQSRFRGTLLGTLFSLPGMMCTCCAAPVAAGMRRQQVSMGGALAFWMGNPVLNPATLVFMGFVLGWGFAAIRLVAGLVMVLLIATLVQKWVRETPQTQAPVEIDIPEAQGGFFSRWGRALWTLFWSTIPVYILAVLVLGAARVWLFPHADGAVDNSLMWVVAMAVAGCLFVIPTAAEIPIVQTMMLAGMGTAPALALLMTLPAVSLPSLIMLRKAFPAKALWLTGAMVAVSGVIVGGLALLF | – | – | – | – | 4.43 ± 0.43 h | – | – | – | – | 5.72 h | – | – |
